# Data as given in patent US20050048548A1 (NEW ENGLAND BIOLABS, published 2005).
# Target: T1, MBP-BirA fusion (E. coli biotin ligase / biotin holoenzyme synthetase with N-terminal maltose binding protein) (E. coli, UniProt P0AEX9 27-392 = MBP; P06709 1-321, limits assumed)
# T1 construct: also called BHS
# Experiment: phage ELISA on plate-coated MBP-BirA, anti-M13-HRP detection
binder,measurement,value
"non-displaying M13 phage (no insert), without selenocysteine (other, bacteriophage M13, UniProt P69168 19-424, looked up, Control; whole phage, applied both after treatment with the biotinylating reagent and untreated; also called non-displaying phage) AETVESCLAKPHTENSFTNVWKDDKTLDRYANYEGCLWNATGVVVCTGDETQCYGTWVPIGLAIPENEGGGSEGGGSEGGGSEGGGTKPPEYGDTPIPGYTYINPLDGTYPPGTEQNPANPNPSLEESQPLNTFMFQNNRFRNRQGALTVYTGTVTQGTDPVKTYYQYTPVSSKAMYDAYWNGKFRDCAFHSGFNEDPFVCEYQGQSSDLPQPPVNAGGGSGGGSGGGSEGGGSEGGGSEGGGSEGGGSGGGSGSGDFDYEKMANANKGAMTENADENALQSDAKGKLDSVATDYGAAIDGFIGDVSGLANGNGATGDFAGSNSQMAQVGDGDNSPLMNNFRQYLPSLPQSVECRPFVFSAGKPYEFSIDCDKINLFRGVFAFLLYVATFMYVFSTFANILRNKES",binding result,no binding
